The target in experiment [1] is collagen (collagen-coated microtiter wells and culture plates; collagen matrices). Put plainly: cell-based or functional assay.
Experiment [2] has the same target. As to the kind of experiment: about 1 µg protein on collagen-coated microtiter plates, washes of rising stringency, immunodetection with DAB.

In experiment [1], “chimeric ECB-CEE+ Moloney Murine Leukemia Virus gp70 envelope protein with collagen binding domain, on retroviral vector particles (from UniProt P03385 52-469)” registered a transduction efficiency of NIH 3T3 cells overlaid upon the virus-bound collagen of 20 to 40%.
“purified, renatured SU-ECB-CEE+ chimeric envelope protein (His×6 tag, von Willebrand Factor derived collagen binding domain, mature SU region of MoMuLV env gp70, residues 34 to 474) (from UniProt P03385 52-474)”: the urea needed to release the collagen-bound protein in experiment [2] is 3 M.

(Values after US20030118551A1.)
